From the RNAGym collection of RNA variant scans (doi:10.1073/pnas.2313332121)

B1: TPR t1 (parent)
chain: GACCAAUCUGCCCUCAGAGCUCGAGAACAUCUUCGGAUGCAGAGGAGGCAGGCUUCGGUGGCGCGAUAGCGCCAACGUCCUCAACCUCCAAUGCAUCCCACCACAUGAUGAUGCCUGAAGAGCCUUGGUUUUUUG

Variants of: B1
Experiment: polymerase ribozyme fitness, log enrichment relative to wild type (log ratio); higher = more active; in vitro selection for triplet polymerase activity
Summary of the method: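 In triplicate, a single round of in vitro selection was run on each mutant library, PCR-built and transcribed, covering one subunit of a heterodimeric triplet polymerase ribozyme. Frozen incubation at −7 °C followed annealing with a biotinylated primer, partner subunit and triplets, and extended constructs were then gel-excised, streptavidin-captured and taken through RT-PCR. Fitness is the logarithm of genotype enrichment over wild-type enrichment, from inverse-variance-weighted replicate averages of Illumina-sequenced inputs and outputs. […] only genotypes with ≥10 input reads and ≥1 read per output were kept.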

| Variant | polymerase ribozyme fitness (log ratio) |
| --- | --- |
| C8G A46G A83G U126G G127A | -1.72 |
| C8A C13U G36C | -0.24 |
| C8G A16U A18U G58C C79A U109A | -6.59 |
| C8A G44A G57A G77A G110U C123U | -4.41 |
| U7A G69U C88G G122A | -1.88 |
| U7A U33A C70U | -5.78 |
| U7G A84G U133G G135U | 0.51 |
| C8A U59G C114U | -0.559 |
| U7A C70A G113C | -4.53 |
| C8A U9G A26G G44A G45U G63U C115A | -3.15 |
| C8A U14G U55A C62U U78A A100C | -1.37 |
| U7G C94G | -0.426 |
| U7A C73A C82G | -0.0183 |
| U7A G48C A74U G113A U130C U133G | -1.3 |
| C8G A50G U106G G120A | 1.23 |
| C8A C20A C79A | -3.7 |
| U7A G44C C124G U129G G135U | -0.681 |
| C8A G69U C88G G128C | -3.18 |
| C8A C70G | -1.76 |
| U7A A46U A50U G60A G69U U96C | -1.72 |
| U7G G71C A111G C115U G120U | -4.01 |
| U7A C8A C11G G47U G57U C62U C85A | -1.82 |
| U7G C70U G93C | -0.518 |
| U7C G10A C11G A91U A111G | -1.99 |

| Variant | polymerase ribozyme fitness (log ratio) |
| --- | --- |
| C8G C13A A91G U106G G117U | -3.24 |
| U7C G48U A50G C89U | -1.26 |
| U7G U59A U130G | -0.396 |
| U7G C102A | -0.8 |
| U7C C8A C62A | -0.194 |
| C8G C11U U116C G120U | 0.747 |
| U7G G51U G60U A111C | -2.64 |
| C8G A46U C104A U106C U116C | -3.35 |
| C8A C72U | 0.071 |
| U7A C12G A18C G45A G48A C49A A74G C85U | -5.35 |
| C8A U112C U125A | 1.71 |
| U7C G71A G127U U133G | -1.83 |
| C8G A68G | -2.09 |
| U7A G71C U81G | -5.8 |
| U7G A103C G120A | -2.83 |
| U7A U14A A119G | 0.0679 |
| C8A A37G A100C | -0.161 |
| U7G G44A C62G A74U C80G G117C | -7 |
| C8A C56G | 0.28 |
| C8G A43U C53U U106A | -1.57 |
| C8A C40G | 0.0349 |
| U7C U21G G45C G71U | -2.5 |
| U7G G10U U78C C101A G122A | -1.81 |
| U7A C62G C86U | -1.24 |

| Variant | polymerase ribozyme fitness (log ratio) |
| --- | --- |
| U7G C53U C62G C101G C102A G120U G127A | -7.14 |
| U7A C53U C86U A90G G122A | -1.97 |
| C8A A37U C104A | -1.64 |
| U7G A46U G61C U112A | -1.98 |
| C8A G71A C104A | -2.19 |
| C8A C34A C98G U126G | -4.07 |
| U7A A41U G71A C85U U87A | -4.06 |
| U7A G52A G69C | -2.28 |
| C8A A37G C62G C72G U112G G127A | -5.98 |
| U7A C11A C40U G93C A119U G122U | 0.441 |
| U7A C73G | -1.63 |
| C8G C11G A41C C49A | -0.887 |
| U7G A24U C102G U109A | -4.85 |
| U7A C53U | -0.0186 |
| U7A C40U | 0.348 |
| U7A C40G | -0.25 |
| U7G G45C G52C C79U C102A | -3.37 |
| C8A G47C U133G | -1.25 |
| C8A C94A A119G | -0.132 |
| U7C C13A C53U | -0.742 |
| C8G C11G G36U G71C U78G U132A | -4.02 |
| C8A G61U A83C A100C | -0.341 |
| U7A C20U C73U G120A U129C U131G | -0.869 |
| U7A G39A G42C G45C A83U G110A | -5.83 |

| Variant | polymerase ribozyme fitness (log ratio) |
| --- | --- |
| U7C C13A C28G G69U A100U | -2.4 |
| C8A G35A C89U G117C | -6.27 |
| C8G A18C A37C G120C | 0.00671 |
| C8A C72G C101G | -2.08 |
| C8A A29G C115U U126G | -2.36 |
| U7C G19U U54C C72G | -3.1 |
| U7A C40U C85G C104U | -2.31 |
| U7C C56G U78C A84U G113C | -2.73 |
| C8A A18U G45C U109A | -5.8 |
| U7G G44U G52C C82G G113A C124U | -3 |
| C8G A37U C49U U54G U133G | -1.23 |
| U7A C56A A121G | 1.68 |
| U7A G48U C94A C97U | -2.33 |
| U7A U9A C11A G42C G47U G61A A118U | -4.21 |
| U7G C12A C97U G117C | -3.54 |
| U7C C31U G61C G71U C72G G120U | -5.19 |
| C8G A41G G71A U78G G122U | -1.62 |
| U7C C8G C12U G19C C115A G128C | -1.55 |
| U7C U78G C82G C99A U112G G128U | -5.9 |
| C8A G39U C64U A111U U116G U129G | -5.99 |
| U7C C62U A111U U133A | -2.88 |
| U7A C85U U125G | -1.31 |
| C8A C22G G113U C114G | -3.52 |
| U7A U32C U55C G60C U129A | -1.82 |

| Variant | polymerase ribozyme fitness (log ratio) |
| --- | --- |
| U7A C8G A43C C53A G77A | -2.07 |
| U7G U129A | -0.778 |
| U7G A46U G63C C102A C104A A111U G128C | -7.59 |
| U7A A37G G52A C56G G120U | -0.68 |
| C8G A41C G63U C64U G113A A118G | -7.5 |
| C8G C12G U59G U129C | 0.2 |
| U7A C20A A26G C82U U125A | -3.24 |
| U7C C73A | -0.286 |
| U7C G48U A50G G61A C89U | -1.71 |
| C8A C28A C56U C82U U106A C115A | -2.02 |
| C8A C82G | -0.777 |
| C8A C12G G61C C123A | -0.379 |
| U7G G77C | 0.424 |
| U7G A18U A121U | 0.525 |
| U7A C79G C88G U112A | -1.87 |
| U7G U21C G47U C56U | -1.15 |
| C8A A46G C101U | -0.289 |
| C8A C62A U130G | -0.621 |
| C8A G19C U59A C82A | -3.12 |
| U7G C70U A83C C97A | -5.37 |
| C8G C12G C56U U106G U112G A118C U133G | -1.11 |
| U7A C53G A83G A84C | -0.766 |
| U7G A29U C56A C76U | -1.78 |
| U7A C15A C62U C64U G93U | -1.99 |

| Variant | polymerase ribozyme fitness (log ratio) |
| --- | --- |
| C8A G93C | 0.003 |
| U7G A95G | 0.461 |
| U7C C13A G93A C102A A103U A121C | -4.79 |
| C8A A43C G57A C72G U96C A103G A108G U109G | -5.5 |
| C8A C13U U38A C97A | -6.04 |
| U7G C56G C86G U96G | -2.15 |
| C8G A121G | 1.62 |
| C8A A75U C85A A90C G93A | -3.24 |
| C8A G65C C115A C123G | -4.88 |
| U7C C34G G69C G120A | -6.41 |
| C8A A66U C124G | 0.659 |
| U7C C8U C34G | -6.08 |
| U7C A37U G60A | -0.133 |
| U7C C40A C56G | -1.43 |
| C8G A50C C79U A90U | -1.96 |
| U7G C56A A84G U133G G135U | -0.824 |
| C8A G61A | -0.475 |
| U7A C13U A27G G36U A50C | -2.73 |
| U7A A41U C85U | -1.81 |
| C8A C123U | 1.44 |
| C8A U78C G113C | -0.875 |
| C8G C12U U21G G39C | -1.78 |
| C8G A43U U54C C72G C114A A118G | -5.83 |
| C8A C62U A74C C89A C104A U112C | -3.01 |

| Variant | polymerase ribozyme fitness (log ratio) |
| --- | --- |
| C8A C80U A105C U112G G120C | -3.09 |
| C8A A41U U112C | 0.774 |
| C8A C64U U78A C94G A100U C102A U112A G128A U129A G135C | -4.75 |
| C8A C34G G110C U129G | -8.1 |
| U7G G45A U59G U129A | -1.45 |
| U7A A50U G77A | -1 |
| U7A C72U G77C G93C G113A G120A | -2.99 |
| C8A C22G C31U G36C G61C | -6.63 |
| U7G G17A G39A U55A C82G C115A U130C | -2.79 |
| C8A U21C C62U A83G G117A | -1.21 |
| C8G A16C U87A | -0.437 |
| C8A G45U C56U A84C A95U | -1.21 |
| U7A C72U U92C | -0.872 |
| U7A U55A U116C | -0.198 |
| U7C G58C A91C | -1.02 |
| C8G A43C G45A A50G G113U G120C | -2.24 |
| C8A C28G G61A | -2.22 |
| U7G C79U C80U | -1.81 |
| C8G C12G G60U G93A | -0.276 |
| U7G C40U | 0.849 |
| U7A G44A A68G | -5.14 |
| C8G A27G C64U C72U G93U C104A A111U U125C | -3.56 |
| C8A G48U U59G A105C U112C G120A | -1.08 |
